In article PMC5799168 (Scientific Reports, 2018):

System: wild-type and mutant Ndi1
Assay: Kinetic parameters of the oxidoreductase activity of wild-type and mutant Ndi1 for ubiquinone-1
Assay type: biochemical, Saccharomyces cerevisiae
Settings: for Km: apparent Km for ubiquinone-1 (2.4–60 µM); for Km / Vmax: NADH fixed at 100 µM; for increase of Km value for ubiquinone-1 in comparison to wild-type enzyme / Vmax, % of the wild-type activity: relative to wild-type Ndi1; for Vmax: ubiquinone-1 as substrate (2.4–60 µM)
Method: This unique structure appears to be related to the competitive nature of the inhibition of Ndi1 oxidoreductase activity by stigmatellin. It is therefore hypothesized that L444, I459, R460, and S461, which interact with stigmatellin at the STG-1a site, are also involved in the binding of the substrate ubiquinone (Fig. 5). This hypothesis was evaluated by examining the effects of mutations of the proximal L444 and I459 on the kinetics of the enzymatic reaction of Ndi1. The effect of the mutation of S484, which specifically interacts with stigmatellin at the STG-1b site, was examined as a control. Furthermore, the effects of mutations of W63, P92, A393, Q394, H397, L447, Y482, M485, and L487, which interact with the aromatic head group of stigmatellin at the STG-1a and STG-1b sites, were also examined. Moreover, to investigate the functional role of the STG-2 site in ubiquinone binding, a mutation was also introduced to R479.
NADH-ubiquinone oxidoreductase activity was measured as described previously. In brief, the reaction was started by adding 100 µM NADH to the enzyme mixture containing 10 ng/mL Ndi1, 50 mM sodium phosphate (pH 6.0) and 1 mM EDTA, which was pre-incubated with various concentrations of ubiquinone-1 for 1 min. The decrease in 340 nm absorbance was measured as an indication of the oxidation of NADH (ε = 6.22 mM^−1 cm^−1) with a Shimadzu UV2000 spectrophotometer (Kyoto, Japan). The enzymatic activity obtained with 100 µM NADH and 60 µM ubiquinone-1 in the absence of any inhibitors (100% activity) catalyzed the oxidation of 1,890 μmol NADH/min/mg Ndi1. The concentrations of inhibitors required to obtain the half-maximal inhibition (IC50) were estimated by non-linear regression dose-response curves. The inhibition mode of each inhibitor for ubiquinone-1 was determined by the intersection point in double-reciprocal plots (Fig. 2B–E). To objectively evaluate the inhibition mode, the data of the inhibition kinetics were fitted to the Eq. (1) of mixed model inhibition in the Prism6 software program (GraphPad Software, Inc., La Jolla, CA).1 V=Vmax[S]/[S](1+[I]/αKi)+Km(1+[I]/Ki) […]
To determine the kinetic parameters of wild-type and mutant enzymes for ubiquinone-1, the NADH oxidation rates were measured in a fixed concentration of NADH (100 µM) and different concentrations of ubiquinone-1 (2.4–60 µM). Apparent Km and Vmax values were obtained by fitting a data set of initial velocity versus substrate concentration to the Michaelis-Menten model equation in the Prism6 software program.
Site-directed mutagenesis. The amino acid replacements of Ndi1 were basically performed with PrimeSTAR mutagenesis basal kit (Takara, Japan) using pET16b(NDI1-m) (2) and a synthetic oligonucleotide primer set (Table S2). The mutagenesis of H397 was performed with a QuikChange II XL site-directed mutagenesis kit (Stratagene, CA). Each mutation was confirmed through DNA sequencing (DNA sequencing service, Eurofins). The purification procedure of wild-type and mutant enzymes, used for the determination of the kinetic parameters (Table 2), was basically the same as the above procedure, without the replacement of the detergent from Triton X -100 with DDM. After washing the enzyme with buffer A containing 0.1% Triton X-100 and 15 mM histidine, 0.02% Triton X-100 was added to all buffer as a substitute for DDM. With the exception of 5 mutants containing L444D, I459A, […]
yield of the wild-type enzyme. […]

Row | Molecule | Km [µM] | increase of Km value for ubiquinone-1 in comparison to wild-type enzyme [fold] | Vmax [µmol/min/mg] | Vmax, % of the wild-type activity [%]
1 | L444D: recombinant Ndi1 mutant L444D (protein, UniProt P32340 27-513, looked up, variant L444D) Rotenone-insensitive …: STGVENSGAGPTSFKTMKVIDPQHSDKPNVLILGSGWGAISFLKHIDTKKYNVSIISPRSYFLFTPLLPSAPVGTVDEKSIIEPIVNFALKKKGNVTYYEAEATSINPDRNTVTIKSLSAVSQLYQPENHLGLHQAEPAEIKYDYLISAVGAEPNTFGIPGVTDYGHFLKEIPNSLEIRRTFAANLEKANLLPKGDPERRRLLSIVVVGGGPTGVEAAGELQDYVHQDLRKFLPALAEEVQIHLVEALPIVLNMFEKKLSSYAQSHLENTSIKVHLRTAVAKVEEKQLLAKTKHEDGKITEETIPYGTLIWATGNKARPVITDLFKKIPEQNSSKRGLAVNDFLQVKGSNNIFAIGDNAFAGLPPTAQVAHQEAEYLAKNFDKMAQIPNFQKNLSSRKDKIDLLFEENNFKPFKYNDDGALAYLGSERAIATIRSGKRTFYTGGGLMTFYLWRILYLSMILSARSRLKVFFDWIKLAFFKRDFFKGL | 37.6 ± 3.9 | 1.7 | 447 ± 6.8 | –
2 | I459W: recombinant Ndi1 mutant I459W (protein, UniProt P32340 27-513, looked up, variant I459W) Rotenone-insensitive …: STGVENSGAGPTSFKTMKVIDPQHSDKPNVLILGSGWGAISFLKHIDTKKYNVSIISPRSYFLFTPLLPSAPVGTVDEKSIIEPIVNFALKKKGNVTYYEAEATSINPDRNTVTIKSLSAVSQLYQPENHLGLHQAEPAEIKYDYLISAVGAEPNTFGIPGVTDYGHFLKEIPNSLEIRRTFAANLEKANLLPKGDPERRRLLSIVVVGGGPTGVEAAGELQDYVHQDLRKFLPALAEEVQIHLVEALPIVLNMFEKKLSSYAQSHLENTSIKVHLRTAVAKVEEKQLLAKTKHEDGKITEETIPYGTLIWATGNKARPVITDLFKKIPEQNSSKRGLAVNDFLQVKGSNNIFAIGDNAFAGLPPTAQVAHQEAEYLAKNFDKMAQIPNFQKNLSSRKDKIDLLFEENNFKPFKYNDLGALAYLGSERAIATWRSGKRTFYTGGGLMTFYLWRILYLSMILSARSRLKVFFDWIKLAFFKRDFFKGL | 75.6 ± 12 | 3.3 | 58.0 ± 1.5 | –
3 | Q394G: recombinant Ndi1 mutant Q394G (protein, UniProt P32340 27-513, looked up, variant Q394G) Rotenone-insensitive …: STGVENSGAGPTSFKTMKVIDPQHSDKPNVLILGSGWGAISFLKHIDTKKYNVSIISPRSYFLFTPLLPSAPVGTVDEKSIIEPIVNFALKKKGNVTYYEAEATSINPDRNTVTIKSLSAVSQLYQPENHLGLHQAEPAEIKYDYLISAVGAEPNTFGIPGVTDYGHFLKEIPNSLEIRRTFAANLEKANLLPKGDPERRRLLSIVVVGGGPTGVEAAGELQDYVHQDLRKFLPALAEEVQIHLVEALPIVLNMFEKKLSSYAQSHLENTSIKVHLRTAVAKVEEKQLLAKTKHEDGKITEETIPYGTLIWATGNKARPVITDLFKKIPEQNSSKRGLAVNDFLQVKGSNNIFAIGDNAFAGLPPTAGVAHQEAEYLAKNFDKMAQIPNFQKNLSSRKDKIDLLFEENNFKPFKYNDLGALAYLGSERAIATIRSGKRTFYTGGGLMTFYLWRILYLSMILSARSRLKVFFDWIKLAFFKRDFFKGL | 30.8 ± 3.4 | 1.4 | 452 ± 8.1 | 43
4 | H397A: recombinant Ndi1 mutant H397A (protein, UniProt P32340 27-513, looked up, variant H397A) Rotenone-insensitive …: STGVENSGAGPTSFKTMKVIDPQHSDKPNVLILGSGWGAISFLKHIDTKKYNVSIISPRSYFLFTPLLPSAPVGTVDEKSIIEPIVNFALKKKGNVTYYEAEATSINPDRNTVTIKSLSAVSQLYQPENHLGLHQAEPAEIKYDYLISAVGAEPNTFGIPGVTDYGHFLKEIPNSLEIRRTFAANLEKANLLPKGDPERRRLLSIVVVGGGPTGVEAAGELQDYVHQDLRKFLPALAEEVQIHLVEALPIVLNMFEKKLSSYAQSHLENTSIKVHLRTAVAKVEEKQLLAKTKHEDGKITEETIPYGTLIWATGNKARPVITDLFKKIPEQNSSKRGLAVNDFLQVKGSNNIFAIGDNAFAGLPPTAQVAAQEAEYLAKNFDKMAQIPNFQKNLSSRKDKIDLLFEENNFKPFKYNDLGALAYLGSERAIATIRSGKRTFYTGGGLMTFYLWRILYLSMILSARSRLKVFFDWIKLAFFKRDFFKGL | 35 ± 2.7 | 1.5 | 463 ± 17 | 44
5 | I459A: recombinant Ndi1 mutant I459A (protein, UniProt P32340 27-513, looked up, variant I459A) Rotenone-insensitive …: STGVENSGAGPTSFKTMKVIDPQHSDKPNVLILGSGWGAISFLKHIDTKKYNVSIISPRSYFLFTPLLPSAPVGTVDEKSIIEPIVNFALKKKGNVTYYEAEATSINPDRNTVTIKSLSAVSQLYQPENHLGLHQAEPAEIKYDYLISAVGAEPNTFGIPGVTDYGHFLKEIPNSLEIRRTFAANLEKANLLPKGDPERRRLLSIVVVGGGPTGVEAAGELQDYVHQDLRKFLPALAEEVQIHLVEALPIVLNMFEKKLSSYAQSHLENTSIKVHLRTAVAKVEEKQLLAKTKHEDGKITEETIPYGTLIWATGNKARPVITDLFKKIPEQNSSKRGLAVNDFLQVKGSNNIFAIGDNAFAGLPPTAQVAHQEAEYLAKNFDKMAQIPNFQKNLSSRKDKIDLLFEENNFKPFKYNDLGALAYLGSERAIATARSGKRTFYTGGGLMTFYLWRILYLSMILSARSRLKVFFDWIKLAFFKRDFFKGL | 40.2 ± 4.1 | 1.8 | 2.90 ± 0.0042 | –
6 | W63F: recombinant Ndi1 mutant W63F (protein, UniProt P32340 27-513, looked up, variant W63F) Rotenone-insensitive …: STGVENSGAGPTSFKTMKVIDPQHSDKPNVLILGSGFGAISFLKHIDTKKYNVSIISPRSYFLFTPLLPSAPVGTVDEKSIIEPIVNFALKKKGNVTYYEAEATSINPDRNTVTIKSLSAVSQLYQPENHLGLHQAEPAEIKYDYLISAVGAEPNTFGIPGVTDYGHFLKEIPNSLEIRRTFAANLEKANLLPKGDPERRRLLSIVVVGGGPTGVEAAGELQDYVHQDLRKFLPALAEEVQIHLVEALPIVLNMFEKKLSSYAQSHLENTSIKVHLRTAVAKVEEKQLLAKTKHEDGKITEETIPYGTLIWATGNKARPVITDLFKKIPEQNSSKRGLAVNDFLQVKGSNNIFAIGDNAFAGLPPTAQVAHQEAEYLAKNFDKMAQIPNFQKNLSSRKDKIDLLFEENNFKPFKYNDLGALAYLGSERAIATIRSGKRTFYTGGGLMTFYLWRILYLSMILSARSRLKVFFDWIKLAFFKRDFFKGL | 53.1 ± 6.4 | 2.3 | 1450 ± 27 | 137
7 | A393G: recombinant Ndi1 mutant A393G (protein, UniProt P32340 27-513, looked up, variant A393G) Rotenone-insensitive …: STGVENSGAGPTSFKTMKVIDPQHSDKPNVLILGSGWGAISFLKHIDTKKYNVSIISPRSYFLFTPLLPSAPVGTVDEKSIIEPIVNFALKKKGNVTYYEAEATSINPDRNTVTIKSLSAVSQLYQPENHLGLHQAEPAEIKYDYLISAVGAEPNTFGIPGVTDYGHFLKEIPNSLEIRRTFAANLEKANLLPKGDPERRRLLSIVVVGGGPTGVEAAGELQDYVHQDLRKFLPALAEEVQIHLVEALPIVLNMFEKKLSSYAQSHLENTSIKVHLRTAVAKVEEKQLLAKTKHEDGKITEETIPYGTLIWATGNKARPVITDLFKKIPEQNSSKRGLAVNDFLQVKGSNNIFAIGDNAFAGLPPTGQVAHQEAEYLAKNFDKMAQIPNFQKNLSSRKDKIDLLFEENNFKPFKYNDLGALAYLGSERAIATIRSGKRTFYTGGGLMTFYLWRILYLSMILSARSRLKVFFDWIKLAFFKRDFFKGL | 32.5 ± 1.9 | 1.4 | 882 ± 7.6 | 83
